Values quoted from earlier work as cited in publication PMC4927088.

Target: LPL (UniProt P11151)
Sequence of UniProt P11151 (P11151 29-478): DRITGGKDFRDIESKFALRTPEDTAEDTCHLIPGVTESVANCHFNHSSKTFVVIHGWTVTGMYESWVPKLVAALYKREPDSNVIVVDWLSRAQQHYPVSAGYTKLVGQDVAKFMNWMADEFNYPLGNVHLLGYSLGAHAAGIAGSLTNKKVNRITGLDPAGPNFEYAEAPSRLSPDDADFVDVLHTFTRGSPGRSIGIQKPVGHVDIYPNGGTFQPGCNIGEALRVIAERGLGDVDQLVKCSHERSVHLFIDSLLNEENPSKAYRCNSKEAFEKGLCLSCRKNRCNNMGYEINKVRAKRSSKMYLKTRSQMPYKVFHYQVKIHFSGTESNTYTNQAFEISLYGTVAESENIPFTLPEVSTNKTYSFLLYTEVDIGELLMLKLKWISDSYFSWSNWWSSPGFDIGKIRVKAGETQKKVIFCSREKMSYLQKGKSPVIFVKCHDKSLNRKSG

Kd: 25 nM
Substance: GPIHBP1 (from UniProt Q8IV16)
